Test results from publication PMC7611114 (Nature chemistry, 2021).

Molecular target: the molecule itself
Test: crystal structure

## Ac-GKKSAWATVISALATVISALATVISAWATVG-NH2 [K2-CCTM-VbIc]
  stoichiometry N: 8
